The data set in a line: yeast display, Sf9 membrane polyspecificity reagent, FACS + sequencing; frameworks hold sequencing errors. The method in brief: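 Galactose-induced (36–48 hours) yeast carrying a synthetic nanobody display library were exposed to 10% biotinylated, detergent-solubilized Sf9 membrane reagent at 4 °C for 1 hour. FACS followed streptavidin microbead enrichment, using low and high (top ~1%) gates for expression (anti-HA) and reagent binding (streptavidin). Colony PCR, MiSeq 2 × 250 sequencing and CDR-length filtering followed. Labels for polyreactivity reflect the gate of origin.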
With “QVQLVESVGGLVQAGCSLRLSCGASGRIFPWYAMGWYRPAPGKERELVAAIRWRGGGTYYADSVKGRFTISRDNAKNTVYLQMNSLKPEDTAVYYCSARRPAKGMGYWGQGTQVTVSS”, the “polyreactivity (PSR sort gate)” value was “high polyreactivity”. Under “QVQLVESVGGLVQAGGCLRLSCDASGFIFTYVMGWYRQAAGKERELVAVITNGGSTYYADSVKGRFTISRDNAKNSFYLQMNSLKPEDTAVYYCAARDRFRYDAYYYWGLGTQVTVSS” stands “high polyreactivity”; under “QVQLVESVGGLVQAGGILRLSSAASGRIFYFYAMGWYRQAPGKERELVAGINWNGGSTHYADSVKGRFTISRDNAKNTVYLQMNSLKPEDTAVYYCAADGYYGQYGGHMGYWGQGTQVTVSS”, “high polyreactivity”.

Regarding “QVQLVESVGGLVQAGGILRLSSAASGSTFERYAMGWDRQAPGKEREFVATINWGGGSTYYADSVKGRFTISRDNAKKTVYLQMNSLKPEDTAVDYCNAYVLYQSWRFSYDYWGQGTHVTVSS”, the “polyreactivity (PSR sort gate)” value was “low polyreactivity”. Under “QVQLVESVGGLVQAGGRLRLSSAASGFTFAFHAMGSYRQAPGKERELVAAISCSGVSTYYADSVKWRFTLSRDNEKNTDYLQMNSLKPEDTAVKYCAVGAVASSHRAGGKRHEYWGQGTQVTLSS” stands “low polyreactivity”; under “QVQLVESVGGLVQAGGSHRLSCAASGRTFQSNGMGWYRHAPGKERELDAAITWSSGTTYYADSVKGRFTISRDNAKNTVYLQMNSLKPEDTAVYYCAADCGHRNCLYYSGFGYWGQGTQVTVSS”, “low polyreactivity”.

In the case of “QVQLVESVGGLVQAGGSHRLSCAASGSIFGYYTMGWYRQAPGKERELVAAITYSGGSTYYADSVKGRFTISRDNAKNTVYLQMNSLKPEDTAVYYCNAKSAAHRYVRRHDYWGLGTQVTVSS”, the “polyreactivity (PSR sort gate)” value is recorded as “low polyreactivity”.

For the sequence “QVQLVESVGGLVQAGGSHRLSCAASGSTFYRYAMGWYRQAPGKERELVAAISRSGGTTYYADSVKGRFTISRDNAKNTVYLQMNSLKPDDTAVYYCNARGRYEYGYWGQGTEVTVSS”, the “polyreactivity (PSR sort gate)” value was “high polyreactivity”. As to “QVQLVESVGGLVQAGGSLRISCAASGRITQIYAMGWSRQAPRKEWELVARITSTDSTYYADSVKGRFTISRDNAKKTVYLKMNSLTPEDTAVYYCAASWWSPYDYWGQGTQVTVSS”, the “polyreactivity (PSR sort gate)” value is reported as “low polyreactivity”.

As for “QVQLVESVGGLVQAGGSLRISCAASGSTFPWYAMGWYRQAPGKERELVASITSGTTTNYADSVKGRFTISRDNAKNTVYLQRNSLKPEDTADYYCAASWVYQYDYWGQGTQVSVSS”, the “polyreactivity (PSR sort gate)” value is listed as “low polyreactivity”. Under “QVQLVESVGGLVQAGGSLRISCAASGSTLTRNTMGWYRPAPGKEREFVATITRSGGSTYYADSVKGRFTISRDNAKNTVYLQMNSLKPEDTAVYYCAVRRQTFRYVYPGMDYWGQGTQVTVSS” stands “high polyreactivity”. Under “QVQLVESVGGLVQAGGSLRLICAASGFIFWDYAMGSDRQAPGKERELVAAISDSGGDTYYAESVKGRFTISRDNAKNTVYLQMNSLKPEDTAVYFCAADLGRNYDYWGQGTQVTVLS” stands “low polyreactivity”; under “QVQLVESVGGLVQAGGSLRLICAASGLTFEWYTMGWYRQATGNERELVAVITVSGSSTYYADSVKGRFTISRDNAKNTVYLQMNSLKPEDTAVYYCARKTYYTGDFLGREYGYWGQGTQVTVSS”, “low polyreactivity”; under “QVQLVESVGGLVQAGGSLRLICAASGSIFYPNAMGWYRQAPGKERELVAAISYSGTSTNYADSVKGRFTISRDNAKNTVYLQMNSLKPEDTAVYYCAARGFPHRRHSLYDYWGQGTQVTVSS”, “low polyreactivity”. “QVQLVESVGGLVQAGGSLRLICAASGSTFRVNAIGWYRQAPGKEREFVAAITGNAGSTYYADSVKGRFTISRDNAKNTVYLQMNSLKPEDTAVYYCAAGLPGYDGDYWGQGTQVTVSS”: the “polyreactivity (PSR sort gate)” value is listed as “low polyreactivity”. Next, “QVQLVESVGGLVQAGGSLRLSCAASGFIFSGNTMGWYRQAPGKERELVAAITSGGGRTYYADSVKGRFTISRDNAKNTVYLQMNSLKPEDTAVYYCNTAFVYEYDYWGQGTQVTVSS”: “high polyreactivity”. Next, “QVQLVESVGGLVQAGGSLRLSCAASGFIFWPYAMGWSRQAPGKERELVAGITSDGSTHYADSVKGRFTISRDNAKNTVYLQINSLKPQDTAVYYCAKGIRYGYRVRVYYWGQGTQVTVSS”: “high polyreactivity”; “QVQLVESVGGLVQAGGSLRLSCAASGFIFYGYAMGWYRQAPGKERELVAAISRSGTSTYYADSVKGRFTISRDYAKNTVYLQMNSVKPDDTAVYYCDADYVGWKWGSRGAIYKHYYWGQGTQVTVSS”: “high polyreactivity”. For the sequence “QVQLVESVGGLVQAGGSLRLSCAASGFIIRYYAMGWYRQAPGKERELVAVISSNGARTSYADSVKGRFTISRDNAKNTVYLQMNSLKPEDTAVYYCNARAWSRFPPVGHDYWGQGTQVTVSS”, the “polyreactivity (PSR sort gate)” value is recorded as “high polyreactivity”.

“QVQLVESVGGLVQAGGSLRLSCAASGFIIYGYGMGWYRQAPGKERELVAAISARSTRTYYADSVKGRFTISRDNAKNTVYLQMNSLKPEDTAVYYCAAVRGPTYRNDNYGYWGQGTQVTVSS”: the “polyreactivity (PSR sort gate)” value was “high polyreactivity”. With “QVQLVESVGGLVQAGGSLRLSCAASGFTFHDYAMGWYRQAPGKERELVAAIYFSGGRTYYADSVKGRFTISRDNAKNTVYLQMNSLKPEDNAVYYCNVPYYSFRELSSYYWGQGTQVTVSS”, the “polyreactivity (PSR sort gate)” value was “high polyreactivity”.

On to “QVQLVESVGGLVQAGGSLRLSCAASGFTFRRYAMGWYRQAPGKERELVAAISYSGGITYYADSVKGRFTISRDNAKNTVYLQMNSLKPEDTAVYYCAADYFAPYKTYEYWGQGTQVTVSS”, for which the “polyreactivity (PSR sort gate)” value is recorded as “high polyreactivity”. Next, “QVQLVESVGGLVQAGGSLRLSCAASGFTFSSNAMGWYRQAPGKERELVAAISGTGGSTYYSDSVKVRITISRDNAKNTFYLLMNRLKPDDKAVYYCARVYNFYTSGYDYWGKGTQVTVSS”: “high polyreactivity”; “QVQLVESVGGLVQAGGSLRLSCAASGFTFTPYGMGWYRQAPGKERELVAAITWNGGRTYYADSVKGRFTISRDNAKNTVYLQMNSLKPEDTAVYYCAAVAWSWQKRGYWGQGTQVTVSS”: “high polyreactivity”; “QVQLVESVGGLVQAGGSLRLSCAASGFTFYTYAMGWYRQAPGKERELVAAINQRGGRTYYADSVKGRFTISRDNAKNTVYLQMNSLKPEDTAVYYCAKSPPPKTRYDYWGQGTQVTVSS”: “high polyreactivity”.

“QVQLVESVGGLVQAGGSLRLSCAASGFTLFFYAMGWYRQAPGKERELVARITSRAGRTYYADSVKGRFTISRDNAKNTVYLQMNSLKPEDNAVFYCNTRDFSGYVHALSLYDYWGQGTQVTVSS”: the “polyreactivity (PSR sort gate)” value is recorded as “high polyreactivity”.

Regarding “QVQLVESVGGLVQAGGSLRLSCAASGGIFDTYVMGWYRQAPGKERELVAAISSSGSTTYADSVKGRFTISRDNAKNTVYLQMNSLKPEDTAVYYCNADYSTIWRYDYWGQGTQVTVSS”, the “polyreactivity (PSR sort gate)” value is listed as “low polyreactivity”. Take “QVQLVESVGGLVQAGGSLRLSCAASGGIFWVYAMGWYRQAPGKERELVADISIADSTNYADSVKGRFTISRDNAKNTVYLQMNSLKPEDTAVYYCNAVPSQHDEFDYWGQGTQVTVSS”: the “polyreactivity (PSR sort gate)” value is on record as “low polyreactivity”.

In the case of “QVQLVESVGGLVQAGGSLRLSCAASGIIFVYYVMGWYRQAPGKERELVASIDGSGGSTNYADSVKGRFTISRDNAKNTVYLQMNSLKPEDTAVYYCNADNILYWSTLDYWGQGTQVTVSS”, the “polyreactivity (PSR sort gate)” value was “low polyreactivity”. Under “QVQLVESVGGLVQAGGSLRLSCAASGIIFWWYAIGWYRQAPGKERELVAAINWSGSSTYYADSVKGRFTISRDNAKNTVYLQMKSLKPEDTAVYYCATAGIIQAESEYLSGYDYWGQGTQVTVSS” stands “high polyreactivity”; under “QVQLVESVGGLVQAGGSLRLSCAASGINFGFNTMGWYRQAPGKERELVAAINGSDGSTYADSVKGRFTISRDNAKNTVYLQMNSLKPEDTAVYYCAADAYDGEGTYPFEYWGQGTQVTVSS”, “low polyreactivity”; under “QVQLVESVGGLVQAGGSLRLSCAASGITFYYNAMGWSRQAPGKERELVAVITSGGSTNYADSVKGRFTISRDNAKNTVYLQMNSLKPEDTAVYYCATDKSYSSWSAQYDYWGQGTQVTVSS”, “low polyreactivity”.

Take “QVQLVESVGGLVQAGGSLRLSCAASGITSGTYAMGWYRQAPGKERELVAAISSSGGRTYYADSVKGRFTISRDNAKNTVYLQMNSLKPEDTAVYYCAARIRLSLRTGYDYWGQGTQVTVSS”: the “polyreactivity (PSR sort gate)” value is “high polyreactivity”.

Turning to “QVQLVESVGGLVQAGGSLRLSCAASGLIFIISTMGWDRQAPGKERELVAAITRRGGITYYADSVKGRFTISRDNAKNTVYLQMNSLKPEDTAVYYCAVVRPYNIWYDYWGQGTQVTVSS”, the “polyreactivity (PSR sort gate)” value is “low polyreactivity”. For the sequence “QVQLVESVGGLVQAGGSLRLSCAASGRIFGTNAMGWYRQAPGKERELVADITSGGSTNYADSVKGRFTISRDNAKNTVYLQMNSLKPEDTAVYYCAADVIGDLRWYRDEYWGQGTQVTVSS”, the “polyreactivity (PSR sort gate)” value is recorded as “low polyreactivity”. Under “QVQLVESVGGLVQAGGSLRLSCAASGRIFPWYAKGWYRQAPGKERELVAAIRWRGGGTYYADSVKGRFTISRDNAKNTVYLQMNSLKPEDTAVYYCAARRPAKGMGYWGQGTQVTVSS” stands “high polyreactivity”; under “QVQLVESVGGLVQAGGSLRLSCAASGRIFSTYAMGWYRQAPGKERELVAAIRFSGTSTYADSVKGRFTISRDNAKNTVYLQMNSLKPEDTAVDYCAAQRYTYYRRYGYLGQGTQVTVSS”, “high polyreactivity”. Next, “QVQLVESVGGLVQAGGSLRLSCAASGRIFVHYVMGWYRQAPGKERELVAAISRSGGRTYYADSVKGRFTISRDNAKNSVYLQMNSLKPEDTAVYYCATDASTYKYDYWGQGTQVTVSS”: “high polyreactivity”; “QVQLVESVGGLVQAGGSLRLSCAASGRIFWNYAMGWYRQATGKERELVASISYRGGSTYYADSVKGRFTISRDNAKNTVYLQMNSLKPEDTAVYYCAARTRQARRTDYGYWGQGTQVTVSS”: “high polyreactivity”. Under “QVQLVESVGGLVQAGGSLRLSCAASGRIFYRYGMGWYRQAPGKERELVASITRGGSTYYADSVKGRFTISRDNAKNTVYLQMNSLKPEDTAVYYCATKSSAGYDYWGQGTQVTVSS” stands “low polyreactivity”; under “QVQLVESVGGLVQAGGSLRLSCAASGRILYLNVMGWYRQAPGKERELVASITVSGGITYYADSVKGRFTISRDNAKNTVYLQMNSLKPEDTAVYYCAVDAYPPFFYFTSVWFSYDYWGQGTQVTVSS”, “low polyreactivity”.

These data come from the nanobody polyreactivity screen of Harvey et al. (2022).
